This note sets out measurements from EP1731161A1.

This experiment has as its target tumor necrosis factor alpha (TNFα) (rat) (UniProt P16599). Briefly: cell-based or functional assay.
UniProt P16599, sequence (P16599 80-235 limits assumed): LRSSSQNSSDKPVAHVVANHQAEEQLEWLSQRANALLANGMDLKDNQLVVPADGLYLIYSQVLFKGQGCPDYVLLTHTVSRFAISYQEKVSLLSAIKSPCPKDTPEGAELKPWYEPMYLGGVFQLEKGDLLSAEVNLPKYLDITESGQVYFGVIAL

As to “TNFRII:Fc receptor fragment (from UniProt P20333 23-257) (Fc fusion)”, the SPH release from hypoxic (5 hrs) adult rat cardiomyocytes after pretreatment with TNFRII:Fc (fold reduction) worked out at 3.
